# Measurements reported in article PMC10127198, “Pseudouridine-Modifying Enzymes SapB and SapH Control Entry into the Pseudouridimycin Biosynthetic Pathway” (ACS Chemical Biology, 2023).
# How the values were obtained:
# [1] = target: T1, SapH (Streptomyces albus, UniProt A0ACH0CL42); experiment: relative activity by HPLC, coupled with SapB; type: biochemical; details: amino donor 5 mM, 1.5 mM uridine, 1 μM SapB, 2 μM SapH, pH 7.5
# T1 construct: gene NR995_03130; homodimer
# [2] = target: T2, SapB (Streptomyces albus, UniProt A0ACH0CL45); experiment: LC/MS of cofactor released by boiling; type: binding; details: copurified, tightly bound
# T2 construct: gene NR995_03120; N-terminal His6-tag, codon-optimized synthetic gene in pBADHisBd, E. coli TOP10
# T2 sequence (A0ACH0CL45 1-509): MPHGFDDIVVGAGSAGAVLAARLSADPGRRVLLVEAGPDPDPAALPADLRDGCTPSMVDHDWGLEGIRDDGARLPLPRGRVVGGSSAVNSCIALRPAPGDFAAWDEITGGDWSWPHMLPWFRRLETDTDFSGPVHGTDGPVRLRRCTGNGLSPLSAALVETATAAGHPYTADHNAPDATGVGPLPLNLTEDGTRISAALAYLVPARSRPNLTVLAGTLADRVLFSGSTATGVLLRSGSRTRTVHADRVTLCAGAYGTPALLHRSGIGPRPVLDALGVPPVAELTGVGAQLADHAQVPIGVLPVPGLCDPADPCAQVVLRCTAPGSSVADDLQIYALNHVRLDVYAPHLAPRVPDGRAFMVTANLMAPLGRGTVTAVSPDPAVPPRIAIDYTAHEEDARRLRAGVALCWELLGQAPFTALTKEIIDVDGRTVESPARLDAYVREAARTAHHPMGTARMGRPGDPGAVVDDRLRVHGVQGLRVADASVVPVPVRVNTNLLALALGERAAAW
# [3] = target: T1, SapH; experiment: X-ray crystallography, […] Å; type: binding; details: active site at dimer interface; non-covalent (no link to Lys289); crystals pH 7.5, 20 °C
# [4] = system: O=c1[nH]c(=O)c([C@@H]2O[C@H](CO)[C@@H](O)[C@H]2O)co1; experiment: purified protein; details: 50 mM Tris-HCl pH 7.5, 10 mM NaCl, 10 mM KCl, 5 mM MgCl2, O2 as electron acceptor
# [5] = system: O=c1[nH]cc([C@@H]2O[C@H](CO)[C@@H](O)[C@H]2O)c(=O)[nH]1; experiment: purified protein; details: 50 mM Tris-HCl pH 7.5, 10 mM NaCl, 10 mM KCl, 5 mM MgCl2, O2 as electron acceptor
# [6] = target: SapH (Streptomyces albus DSM 40763); experiment: crystal structure; hanging drop vapour diffusion at 20 °C; SapH 9.9 mg/mL in 50 mM TAPS pH 8.5, 250 mM NaCl, 10% glycerol; well 0.1 M BisTRIS-propane, 0.2 M Na-K-phosphate, 27.5% PEG3350, pH 7.5; space group P212121; dimer in the asymmetric unit
# T1 sequence (A0ACH0CL42 entry or part of it): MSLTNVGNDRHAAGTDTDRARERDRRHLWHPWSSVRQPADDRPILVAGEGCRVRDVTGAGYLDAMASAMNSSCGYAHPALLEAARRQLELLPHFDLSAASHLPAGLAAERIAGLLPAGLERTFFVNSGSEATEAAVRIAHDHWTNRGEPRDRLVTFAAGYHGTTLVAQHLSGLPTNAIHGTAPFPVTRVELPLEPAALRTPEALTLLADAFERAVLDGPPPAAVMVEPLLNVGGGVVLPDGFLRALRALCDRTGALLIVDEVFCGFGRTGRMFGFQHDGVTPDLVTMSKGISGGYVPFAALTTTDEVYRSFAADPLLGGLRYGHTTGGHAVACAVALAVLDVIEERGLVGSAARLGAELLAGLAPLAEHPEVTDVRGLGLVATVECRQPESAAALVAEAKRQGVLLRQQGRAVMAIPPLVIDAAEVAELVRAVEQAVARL
compound,measurement,setting,value
N=C(N)NCCC[C@H](N)C(=O)O [arginine],"relative activity by HPLC, coupled with SapB",[1],"shows preference for methionine, phenylalanine, and arginine"
Cc1cc2nc3c(=O)[nH]c(=O)nc-3n(C[C@H](O)[C@H](O)[C@H](O)COP(=O)(O)OP(=O)(O)OC[C@H]3O[C@@H](n4cnc5c(N)ncnc54)[C@H](O)[C@@H]3O)c2cc1C [flavin adenine dinucleotide],LC/MS of cofactor released by boiling,[2],LC/MS) analysis identified the SapB cofactor to be flavin adenine dinucleotide (FAD)
Cc1ncc(COP(=O)(O)O)c(CN)c1O [pyridoxamine-5′-phosphate],"X-ray crystallography, 1.55 Å",[3],"The bound PLP was modeled as pyridoxamine, according to the observed electron density map"
SapB (Streptomyces albus),Km,[4],181 ± 25 µM
same,kcat,[4],0.0172 s⁻¹
same,kcat/Km,[4],95 M⁻¹ s⁻¹
same,Km,[5],34 ± 5 µM
same,kcat,[5],0.019 s⁻¹
same,kcat/Km,[5],550 M⁻¹ s⁻¹
SapH (enzyme),stoichiometry N,[6],2
